B1: Rv0348-His6 (natural protein)
chain: MTISFSSSNLRDDATSGNGDYRLDKLPETTPSTSVFDRADVTYRQFTELHGQARDTRREAHVVELESKTGERARCAPMHALEQLADYGFAWRDIARVVGVSVPAITKWRKGAGVTGENRLKIARLLALIDMLSDRFIGEPASWLEMPIQAGVGITRMDLLERGRYDLVLALASTHTGDGTVEYVLNETDKDWRETVVDNAFESYTAEDGVISIRPKR
notes: also called mosR; not shown: His6, C-terminal, kept

Columns and labels:
[1] = molecular target: T1, Rv0348 (MosR) (Mycobacterium tuberculosis H37Rv) (UniProt O06299); experiment: EMSA
T1 sequence: B1 chain

[2] = molecular target: T2, Phosphorylated DevR (DevR~P) (Mycobacterium tuberculosis, UniProt P9WMF9 1-217, phosphorylated using 50 mM acetyl phosphate (residue not stated)); experiment: native gel or EMSA; details: both partners purified
T2 construct: DevR, two-component response regulator of Mycobacterium tuberculosis (devR of the Rv3134c-devR-devS operon), phosphorylated in vitro with acetyl phosphate; also called His6-DevR phosphorylated
T2 sequence (P9WMF9 whole entry): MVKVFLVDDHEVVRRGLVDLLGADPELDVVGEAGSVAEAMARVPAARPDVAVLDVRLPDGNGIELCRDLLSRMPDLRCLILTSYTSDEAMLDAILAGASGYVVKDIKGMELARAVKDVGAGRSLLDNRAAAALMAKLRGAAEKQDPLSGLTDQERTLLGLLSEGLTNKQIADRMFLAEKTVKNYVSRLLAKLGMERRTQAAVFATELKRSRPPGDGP

Molecule	binding [1]	binding result [2]
TTACTGGCGGGGACCGCTATCTCCCAGGGGCGTTGGTCCCCACCTGAGGGCCGTTAGTCCTTATCGACCGATGACAGACGCAACCCGTCAGGGCGAGAATGAATCTCACCTATCGCACGGGTGGCTCGTCCAGGTCCACAACCATCGCCCAGCTTTTCACAGCAAAGTCCCAGAAATGGCTTACAGTTGCCGACAGCTGCCGAACCAGCGGCCGTC (double strand) [Rv3134c promoter fragment (devR operon promoter)]	no binding	–
B1	–	binds
